Patent US20020160496A1 (DUKE UNIVERSITY, published 2002)

Target: the molecule itself
Test: blue native PAGE (BN-PAGE) of native, heat shocked and bis-ANS treated GRP94; self-association

B1: GRP94 (glucose regulated protein of 94 kDa) purified from porcine pancreas (other, UniProt Q29092 22-804, looked up)
chain: EDEVDVDGTVEEDLGKSREGSRTDDEVVQREEEAIQLDGLNASQIRELREKSEKFAFQAEVNRMMKLIINSLYKNKEIFLRELISNASDALDKIRLISLTDENALAGNEELTVKIKCDKEKNLLHVTDTGVGMTREELVKNLGTIAKSGTSEFLNKMAEAQEDGQSTSELIGQFGVGFYSAFLVADKVIVTSKHNNDTQHIWESDSNEFSVIADPRGNTLGRGTTITLVLKEEASDYLELDTIKNLVKKYSQFINFPIYVWSSKTETVEEPMEEEEAAKEEKEESDDEAAVEEEEEEKKPKTKKVEKTVWDWELMNDIKPIWQRPSKEVEDDEYKAFYKSFSKESDDPMAYIHFTAEGEVTFKSILFVPTSAPRGLFDEYGSKKSDYIKLYVRRVFITDDFHDMMPKYLNFVKGVVDSDDLPLNVSRETLQQHKLLKVIRKKLVRKTLDMIKKIADEKYNDTFWKEFGTNIKLGVIEDHSNRTRLAKLLRFQSSHHPSDITSLDQYVERMKEKQDKIYFMAGSSRKEAESSPFVERLLKKGYEVIYLTEPVDEYCIQALPEFDGKRFQNVAKEGVKFDESEKSKENREAVEKEFEPLLNWMKDKALKDKIEKAVVSQRLTESPCALVASQYGWSGNMERIMKAQAYQTGKDISTNYYASQKKTFEINPRHPLIRDMLRRVKEDEDDKTVSDLAVVLFETATLRSGYLLPDTKAYGDRIERMLRLSLNIDPDAKVEEEPEEEPEETTEDTTEDTEQDDDEEMDAGADEEEQETSETSTAEKDEL
notes: also called gp96; ERp99
- binding result: binds
